In the supplement of paper PMC10567573:

B1: CPOX (parent)
chain: HAPTIHFNYRYFEVEEADGNKQWW

Variants of: B1
Experiment: protein stability index of a GFP-peptide fusion (GPS, HEK-293T) (PSI 1-6); higher = more stable
Settings: c terminus: a fixed tail appended
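Note: lentivirally expressed fusions sorted by FACS into six bins by GFP to DsRed ratio, PSI derived from sequencing read proportions per bin multiplied by bin number.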

Protein stability index of substitutions, site by site:
N8: S 3.03 | E 2.1 | I 1.26 | T 1.87 | W 1.52 | K 1.67 | Y 2.02 | R 2.83 | D 2.75 | M 2.53 | V 1.57 | Q 2.48 | A 2.22
D18: I 1.5 | A 2.6 | G 2.45 | N 2.32 | V 1.68 | L 1.3 | Q 3.07 | C 1.61 | S 2 | R 2.18 | E 2.63 | K 2.16 | Y 1.07 | T 1.89 | M 1.7 | F 3.24 | H 2.86 | P 1.71
Q22: G 2.46 | C 1.96 | H 2.03 | A 1.98 | E 3.35 | F 1.67 | D 3.12
K21: Q 2.67 | E 2.53 | A 2.44 | D 2.52 | I 2.25 | T 1.53 | P 2.25 | R 2.43 | W 1.89 | M 1.54 | N 2.22 | C 2.45 | L 1.74 | V 2.1 | Y 1.95 | H 2.6 | G 2.44 | F 1.6 | S 1.99
A17: R 2.02 | S 2.23 | G 2.57 | H 1.89 | P 2.05 | L 1.96 | E 3.01 | C 2.08 | F 1.97 | T 2.35 | Y 1.77 | Q 2.31 | D 2.6 | M 2.27 | I 1.86 | V 1.9 | K 2.9 | N 3.19
E16: K 2.18 | H 1.82 | A 1.67 | D 2.13 | Q 2.39 | F 1.44 | S 2.24 | N 1.83 | M 2.81 | I 2.29 | G 2.21 | C 1.67 | T 2.53 | P 1.83 | R 1.91 | L 1.44 | Y 1.37
N20: Y 1.66 | F 1.07 | W 1.88 | A 1.76 | G 2.38 | M 1.32 | T 2.85 | L 2.12 | P 1.98 | I 2.34 | R 2.46 | H 2.38 | K 3.29 | S 2.08 | V 2.27 | E 2.75 | Q 2.95 | D 2.12 | C 1.87
G19: E 2.48 | F 2.46 | W 1.79 | L 1.87 | A 2.33 | V 2.11 | R 2.25 | C 1.97 | I 2.07 | D 3.04 | Y 3.23 | S 2.19 | P 2.04 | H 1.8 | N 2.22 | K 2.17 | T 2.26 | Q 2.11 | M 2.06
E15: I 2.7 | M 2.35 | W 2.4 | C 2.15 | H 1.5 | R 1.41 | D 2.58 | V 1.79 | Y 1.9 | P 2.13 | G 2.04 | S 2.49 | Q 2.2 | F 2.14 | K 2.56 | T 1.81 | L 2.49 | N 1.84 | A 1.93
F12: I 2.33 | T 3.08 | N 3.05 | E 2.99 | D 3.51 | G 3.51 | W 1.99 | Q 2.63 | L 2.64 | A 2.49 | S 2.87 | Y 2.84 | R 2.96 | H 3.01 | P 3.12 | K 3.04 | C 2.02 | M 2.52
